T1: Torpedo nicotinic acetylcholine receptor δ subunit (Tetronarce californica (Pacific …, UniProt P02718 22-522))
T1 sequence: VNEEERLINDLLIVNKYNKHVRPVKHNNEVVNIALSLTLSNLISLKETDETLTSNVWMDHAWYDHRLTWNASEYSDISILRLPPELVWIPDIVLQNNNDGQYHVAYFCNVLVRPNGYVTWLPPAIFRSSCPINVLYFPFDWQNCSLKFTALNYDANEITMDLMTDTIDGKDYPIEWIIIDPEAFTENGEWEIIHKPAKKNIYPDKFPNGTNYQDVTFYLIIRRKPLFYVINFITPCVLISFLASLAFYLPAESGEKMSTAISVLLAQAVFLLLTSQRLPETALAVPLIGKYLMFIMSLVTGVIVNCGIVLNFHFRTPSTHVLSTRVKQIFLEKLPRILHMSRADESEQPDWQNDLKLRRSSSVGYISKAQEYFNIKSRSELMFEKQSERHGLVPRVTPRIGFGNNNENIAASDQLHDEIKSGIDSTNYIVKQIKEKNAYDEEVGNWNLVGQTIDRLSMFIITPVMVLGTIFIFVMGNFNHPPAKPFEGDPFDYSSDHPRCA

B1: Torpedo nicotinic acetylcholine receptor β subunit (receptor)
chain: SVMEDTLLSVLFETYNPKVRPAQTVGDKVTVRVGLTLTNLLILNEKIEEMTTNVFLNLAWTDYRLQWDPAAYEGIKDLRIPSSDVWQPDIVLMNNNDGSFEITLHVNVLVQHTGAVSWQPSAIYRSSCTIKVMYFPFDWQNCTMVFKSYTYDTSEVTLQHALDAKGEREVKEIVINKDAFTENGQWSIEHKPSRKNWRSDDPSYEDVTFYLIIQRKPLFYIVYTIIPCILISILAILVFYLPPDAGEKMSLSISALLAVTVFLLLLADKVPETSLSVPIIIRYLMFIMILVAFSVILSVVVLNLHHRSPNTHTMPNWIRQIFIETLPPFLWIQRPVTTPSPDSKPTIISRANDEYFIRKPAGDFVCPVDNARVAVQPERLFSEMKWHLNGLTQPVTLPQDLKEAVEAIKYIAEQLESASEFDDLKKDWQYVAMVADRLFLYVFFVICSIGTFSIFLDASHNVPPDNPFA
B2: Torpedo nicotinic acetylcholine receptor α subunit (receptor)
chain: SEHETRLVANLLENYNKVIRPVEHHTHFVDITVGLQLIQLISVDEVNQIVETNVRLRQQWIDVRLRWNPADYGGIKKIRLPSDDVWLPDLVLYNNADGDFAIVHMTKLLLDYTGKIMWTPPAIFKSYCEIIVTHFPFDQQNCTMKLGIWTYDGTKVSISPESDRPDLSTFMESGEWVMKDYRGWKHWVYYTCCPDTPYLDITYHFIMQRIPLYFVVNVIIPCLLFSFLTGLVFYLPTDSGEKMTLSISVLLSLTVFLLVIVELIPSTSSAVPLIGKYMLFTMIFVISSIIITVVVINTHHRSPSTHTMPQWVRKIFIDTIPNVMFFSTMKRASKEKQENKIFADDIDISDISGKQVTGEVIFQTPLIKNPDVKSAIEGVKYIAEHMKSDEESSNAAEEWKYVAMVIDHILLCVFMLICIIGTVSVFAGRLIELSQEG

The target of experiment [1] is T1, Torpedo nicotinic acetylcholine …. Put plainly: cryo-EM structure.
The target of experiment [2] is B1. Briefly: cryo-EM structure.

With B1, in experiment [1], the binding result is listed as “binds”.

B2: in experiment [2], the binding result was “binds”.

Source of the values: publication doi:10.64898/2025.12.03.692134 (bioRxiv, 2025).
